Results: US20250152742A1, “COMPOSITIONS AND METHODS FOR NEUROLOGICAL DISEASES” (Trames Bio, Inc., priority 2022, published 2025)
Positions count from the first letter of the chain named. Names may count otherwise.

System: engineered chimeric receptor SEQ ID NO: 33 and its mutants (human α7-nAChR ligand binding domain / human GlyRα1 ion pore domain) in Lenti-X 293T cells
Test: YFP fluorescence quenching anion reporter plate reader assay (percent quench, EC50)
Assay type: cell-based
Conditions: for YFP fluorescence quenching using CNL001 (percent quench): receptor named in row; for YFP fluorescence quenching using Varenicline, 3 nM var: ligand Varenicline 3 nM; for YFP fluorescence quenching using Varenicline, 30 nM var: ligand Varenicline 30 nM; for YFP fluorescence quenching using Varenicline, 300 nM var: ligand Varenicline 300 nM; for YFP fluorescence quenching using Varenicline, 500 nM var: ligand Varenicline 500 nM; for YFP fluorescence quenching using Varenicline, 1 uM var: ligand Varenicline 1 uM
Outline: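 Lenti-X 293T cells co-expressing an anion-quenchable YFP were transiently transfected with receptor DNA, then ligand was added in NaI-substituted buffer (pH 7.2) after 30 min at 37 °C. Fluorescence was read about 2 min; percent quench = mean of last 10 s over 15 s pre-ligand baseline.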

[1] = 1 nM CNL001, first column so headed
[2] = 1 nM CNL001, second column so headed
[3] = 1 nM brd (TC-5619/Bradanicline)
[4] = 3 nM brd (TC-5619/Bradanicline)
[5] = 10 nM CNL001, first column so headed
[6] = 10 nM CNL001, second column so headed
[7] = 10 nM brd (TC-5619/Bradanicline)
[8] = 30 nM brd (TC-5619/Bradanicline)
[9] = 50 nM CNL001, first column so headed
[10] = 50 nM CNL001, second column so headed
[11] = 100 nM CNL001, first column so headed
[12] = 100 nM CNL001, second column so headed
[13] = 100 nM brd (TC-5619/Bradanicline)
[14] = 300 nM brd (TC-5619/Bradanicline)
[15] = 1 uM CNL001, first column so headed
[16] = 1 uM CNL001, second column so headed

B1: CODA1054: engineered receptor: R101M, L131F in SEQ ID NO: 33 (protein)
chain: MRCSPGGVWLALAASLLHVSLQGEFQRKLYKELVKNYNPLERPVANDSQPLTVYFSLSLLQIMDVDEKNQVLTTNIWLQMSWTDHYLQWNVSEYPGVKTVMFPDGQIWKPDILLYNSADERFDATFHTNVFVNSSGHCQYLPPGIFKSSCPMDLKNFPMDVQTCKLKFGSWSYGGWSLDLQMQEADISGYIPNGEWDLVGIPGKRSERFYECCKEPYPDVTFTVTMRRRMGYYLIQMYIPSLLIVILSWISFWINMDAAPARVGLGITTVLTMTTQSSGSRASLPKVSYVKAIDIWMAVCLLFVFSALLEYAAVNFVSRQHKELLRFRRKRRHHKSPMLNLFQEDEAGEGRFNFSAYGMGPACLQAKDGISVKGANNSNTTNPPPAPSKSPEEMRKLFIQRAKKIDKISRIGFPMAFLIFNMFYWIIYKIVRREDVHNQ
modifications: synthetic sequence of chimeric LGIC
- YFP fluorescence quenching using CNL001 (percent quench) [1]: 21.932%
- YFP fluorescence quenching using CNL001 (percent quench) [2]: 39.689%
- YFP fluorescence quenching using TC-5619/Bradanicline (percent quench) [3]: 6.609%
- YFP fluorescence quenching using TC-5619/Bradanicline (percent quench) [4]: −7.635%
- YFP fluorescence quenching using CNL001 (percent quench) [5]: 54.192%
- YFP fluorescence quenching using CNL001 (percent quench) [6]: 64.111%
- YFP fluorescence quenching using TC-5619/Bradanicline (percent quench) [7]: 4.459%
- YFP fluorescence quenching using TC-6683 (percent quench) (30 nM TC-6683): −22.996%
- YFP fluorescence quenching using TC-5619/Bradanicline (percent quench) [8]: 69.782%
- YFP fluorescence quenching using CNL001 (percent quench) [9]: 71.409%
- YFP fluorescence quenching using CNL001 (percent quench) [10]: 70.989%
- YFP fluorescence quenching using ABT-126 (percent quench) (50 nM abt (ABT-126)): −19.54%
- YFP fluorescence quenching using CNL001 (percent quench) [11]: 74.148%
- YFP fluorescence quenching using CNL001 (percent quench) [12]: 71.722%
- YFP fluorescence quenching using ABT-126 (percent quench) (100 nM abt (ABT-126)): −18.28%
- YFP fluorescence quenching using TC-5619/Bradanicline (percent quench) [13]: 77.633%
- YFP fluorescence quenching using TC-6683 (percent quench) (300 nM TC-6683): −27.055%
- YFP fluorescence quenching using ABT-126 (percent quench) (300 nM abt (ABT-126)): −16.87%
- YFP fluorescence quenching using TC-5619/Bradanicline (percent quench) [14]: 72.933%
- YFP fluorescence quenching using CNL001 (percent quench) [15]: 71.378%
- YFP fluorescence quenching using CNL001 (percent quench) [16]: 71.411%
- YFP fluorescence quenching using ABT-126 (percent quench) (1 uM abt (ABT-126)): −11.77%
- YFP fluorescence quenching using TC-6683 (percent quench) (3 uM TC-6683): −18.611%
- YFP fluorescence quenching (percent quench) (10 uM ach (acetylcholine)): −3.98%
- YFP fluorescence quenching using TC-6683 (percent quench) (30 uM TC-6683): −13.879%
- YFP fluorescence quenching using TC-6683 (percent quench) (100 uM TC-6683): −21.521%
- YFP fluorescence quenching (percent quench) (100 uM ach (acetylcholine)): −10.34%
- YFP fluorescence quenching (percent quench) (300 uM ach (acetylcholine)): −10.25%
- YFP fluorescence quenching (percent quench) (500 uM ach (acetylcholine)): −11.46%
- YFP fluorescence quenching (percent quench) (1 mM ach (acetylcholine)): 1.77%
- YFP fluorescence quenching (percent quench) (3 mM ach (acetylcholine)): 36.81%
- YFP fluorescence quenching (percent quench) (10 mM ach (acetylcholine)): 74.02%
- YFP fluorescence quenching using Varenicline, 3 nM var (first column): 34.923
- YFP fluorescence quenching using Varenicline, 3 nM var (second column): 28.944
- YFP fluorescence quenching using Varenicline, 30 nM var (first column): 42.214
- YFP fluorescence quenching using Varenicline, 30 nM var (second column): 43.015
- YFP fluorescence quenching using Varenicline, 300 nM var (first column): 47.059
- YFP fluorescence quenching using Varenicline, 300 nM var (second column): 52.768
- YFP fluorescence quenching using Varenicline, 500 nM var (first column): 59.542
- YFP fluorescence quenching using Varenicline, 500 nM var (second column): 62.641
- YFP fluorescence quenching using Varenicline, 1 uM var (first column): 71.449
- YFP fluorescence quenching using Varenicline, 1 uM var (second column): 69.145

B2: CODA1048: engineered receptor: R101F, Y210F in SEQ ID NO: 33 (protein)
chain: B1 chain with M101F, F131L, Y210F
modifications: synthetic sequence of chimeric LGIC
- YFP fluorescence quenching using CNL001 (percent quench) [1]: 9.114%
- YFP fluorescence quenching using CNL001 (percent quench) [2]: 0.845%
- YFP fluorescence quenching using TC-5619/Bradanicline (percent quench) [3]: −2.084%
- YFP fluorescence quenching using TC-5619/Bradanicline (percent quench) [4]: −9.098%
- YFP fluorescence quenching using CNL001 (percent quench) [5]: 28.944%
- YFP fluorescence quenching using CNL001 (percent quench) [6]: 53.629%
- YFP fluorescence quenching using TC-5619/Bradanicline (percent quench) [7]: −2.587%
- YFP fluorescence quenching using TC-6683 (percent quench) (30 nM TC-6683): −29.055%
- YFP fluorescence quenching using TC-5619/Bradanicline (percent quench) [8]: 55.818%
- YFP fluorescence quenching using CNL001 (percent quench) [9]: 68.581%
- YFP fluorescence quenching using CNL001 (percent quench) [10]: 74.379%
- YFP fluorescence quenching using ABT-126 (percent quench) (50 nM abt (ABT-126)): −23.28%
- YFP fluorescence quenching using CNL001 (percent quench) [11]: 80.541%
- YFP fluorescence quenching using CNL001 (percent quench) [12]: 80.774%
- YFP fluorescence quenching using ABT-126 (percent quench) (100 nM abt (ABT-126)): −21.78%
- YFP fluorescence quenching using TC-5619/Bradanicline (percent quench) [13]: 76.957%
- YFP fluorescence quenching using TC-6683 (percent quench) (300 nM TC-6683): −33.935%
- YFP fluorescence quenching using ABT-126 (percent quench) (300 nM abt (ABT-126)): −19.35%
- YFP fluorescence quenching using TC-5619/Bradanicline (percent quench) [14]: 74.268%
- YFP fluorescence quenching using CNL001 (percent quench) [15]: 83.143%
- YFP fluorescence quenching using CNL001 (percent quench) [16]: 81.751%
- YFP fluorescence quenching using ABT-126 (percent quench) (1 uM abt (ABT-126)): −16.33%
- YFP fluorescence quenching using TC-6683 (percent quench) (3 uM TC-6683): −24.613%
- YFP fluorescence quenching using TC-6683 (percent quench) (30 uM TC-6683): −21.752%
- YFP fluorescence quenching using TC-6683 (percent quench) (100 uM TC-6683): −22.815%
- YFP fluorescence quenching (percent quench) (100 uM ach (acetylcholine)): −17.31%
- YFP fluorescence quenching (percent quench) (300 uM ach (acetylcholine)): −13.7%
- YFP fluorescence quenching (percent quench) (500 uM ach (acetylcholine)): −10.1%
- YFP fluorescence quenching (percent quench) (1 mM ach (acetylcholine)): 5.53%
- YFP fluorescence quenching (percent quench) (3 mM ach (acetylcholine)): 68.61%
- YFP fluorescence quenching (percent quench) (10 mM ach (acetylcholine)): 78.22%
- YFP fluorescence quenching using Varenicline, 3 nM var (first column): −17.119
- YFP fluorescence quenching using Varenicline, 3 nM var (second column): −13.234
- YFP fluorescence quenching using Varenicline, 30 nM var (first column): −7.747
- YFP fluorescence quenching using Varenicline, 30 nM var (second column): 4.193
- YFP fluorescence quenching using Varenicline, 300 nM var (first column): 4.149
- YFP fluorescence quenching using Varenicline, 300 nM var (second column): 1.512
- YFP fluorescence quenching using Varenicline, 500 nM var (first column): −1.572
- YFP fluorescence quenching using Varenicline, 500 nM var (second column): 3.71
- YFP fluorescence quenching using Varenicline, 1 uM var (first column): 8.414
- YFP fluorescence quenching using Varenicline, 1 uM var (second column): 4.091
